The data set in a line: protein stability index of a GFP-peptide fusion (GPS, HEK-293T) (PSI 1-6); higher = more stable.
Setting [1] is: treatment: DMSO, c terminus: a fixed tail appended.
Setting [2] is: treatment: MLN4924 1 uM, 8 h, c terminus: a fixed tail appended.
Where [3] appears, read: treatment: DMSO, c terminus: native.
The mark [4] stands for this setting: treatment: MLN4924 1 uM, 8 h, c terminus: native.

± gives the standard deviation.

Results on 53 sequences are retold here after the supplement of paper PMC10567573.
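Further: 24-mer peptide tiles fused after GFP, lentivirally expressed, FACS-sorted into six equal bins by GFP/DsRed ratio, decoded by Illumina sequencing, PSI is the read-weighted mean bin number.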

Regarding PFSSSSPENVEDSGLDSPSHAAPG [FCHO1], the protein stability index stood at 5.5 ± 0.19 under setting [1] and 5.4 ± 0.39 under setting [2].

With ASADRTVIVWDGDTTRQVQRISCF [WDR41], the protein stability index is, setting by setting: under setting [1], 2.25 ± 0.27; under setting [2], 2.58 ± 0.26.

As to TVTVISPLELMRTKLQAQHVSYRE [SLC25A39], the protein stability index by setting is: under setting [1], 2.65 ± 0.41; under setting [2], 2.81 ± 0.22.

Consider KGKYNISSEDYRQLELVILQSEPH [KCNK9], for which the protein stability index reads like this: under setting [1], 2.87 ± 0.28; under setting [2], 2.93 ± 0.29.

As for SAYISNYAFANVFHGWKYMFGLVI [SLC2A12], the protein stability index came to 2.91 ± 0.38 under setting [1] and 2.9 ± 0.67 under setting [2].

With RQVQSLMVHQRKLEAELLQIEERH [SMARCE1], the protein stability index by setting is: under setting [1], 4 ± 0.12; under setting [2], 4.23 ± 0.17.

ISRKLGDMRNSATFKSFEDRVGTI [TPD52L2]: the protein stability index runs as follows: under setting [1], 2.98 ± 0.22; under setting [2], 3.07 ± 0.24.

Consider GAHEQVDFKDFYPAIADLFAESLQ [P3H4], for which the protein stability index was 2.84 ± 0.51 under setting [1] and 3.08 ± 0.53 under setting [2].

As to LEMRRRCTWSIFQSIEYAGQQDQV [PPEF2], the protein stability index runs as follows: under setting [1], 1.92 ± 0.52; under setting [2], 2.25 ± 0.1.

With ALEKLRSEMEEEKRQAVNKAVANM [ZMYND11], the protein stability index reads like this: under setting [1], 4.42 ± 0.38; under setting [2], 4.34 ± 0.36.

Take VNPNGQKQQLVDAFLKLAKQRSVC [FAN1]: the protein stability index under setting [1] came out at 3.16 ± 0.27 and the protein stability index under setting [2] turned out to be 2.92 ± 0.32.

Consider TLDGRTPLHLAAQRGHYRVARILI [RIPK4], for which the protein stability index reads like this: under setting [1], 1.97 ± 0.44; under setting [2], 1.92 ± 0.36.

PPTQLEVNLEEIPGEGLLISWAFT [C2CD2L]: the protein stability index by setting is: under setting [1], 2.75 ± 0.41; under setting [2], 3.01 ± 0.5.

On to TQARQVMEREFNNLLALGTDRKLD [PPFIA4], for which the protein stability index amounted to 4.21 ± 0.52 under setting [1] and 4.12 ± 0.38 under setting [2].

PKTVPSHVFSELWDLSEAWMQANY [ELOA2]: the protein stability index runs as follows: under setting [1], 2.6 ± 0.26; under setting [2], 2.56 ± 0.41.

For DLGDIVARSESVLLHMPQPVNPEL [TRIM43], the protein stability index reads like this: under setting [1], 3.67 ± 0.31; under setting [2], 3.8 ± 0.25.

As to LEFLLALYFLFADAMQLNDKWQGL [CMTM3], the protein stability index reads like this: under setting [1], 2.77 ± 0.45; under setting [2], 2.8 ± 0.93.

With EELDKYWSQQIEESTTVVTTQSAE [KRT18], the protein stability index reads like this: under setting [1], 5.16 ± 0.27; under setting [2], 5.23 ± 0.25.

Consider TFYVRFFLTYVPLLGLKAFLGLFF [FADS1], for which the protein stability index turned out to be 2.93 ± 0.3 under setting [1] and 3.24 ± 0.29 under setting [2].

For the sequence EKGETMEVIEKPENDPEWWKCKNA [NCK2], the protein stability index by setting is: under setting [1], 5.36 ± 0.32; under setting [2], 5.486 ± 0.04.

LLIYTVKIRRFNKAKPEPDILEEE [TMEM192]: the protein stability index is, setting by setting: under setting [1], 2.31 ± 0.32; under setting [2], 2.29 ± 0.31.

SDLPTPQAIEPQAIVQQVPAPSRM [SNX8] had a protein stability index under setting [1] of 5.21 ± 0.11 and a protein stability index under setting [2] of 5.13 ± 0.19.

For the sequence RRKEYDALKAAKREQEKKPKKEAN [LRRC59], the protein stability index reads like this: under setting [1], 5.25 ± 0.15; under setting [2], 5.17 ± 0.22.

The sequence IRTKLNYNPPKDDGSTYKIELEGI [GAN] showed a protein stability index under setting [1] of 2.76 ± 0.1 and a protein stability index under setting [2] of 2.84 ± 0.39.

For the sequence YAKVKEFIVDILQFLDIGPDVTRV [MATN2], the protein stability index under setting [1] came to 3.84 ± 0.32 and the protein stability index under setting [2] turned out to be 3.81 ± 0.084.

On to NESLASLPLRVSFCPLSLWRWQLY [CLPTM1], for which the protein stability index is 2.45 ± 0.41 under setting [1] and 2.18 ± 0.4 under setting [2].

On to LDLMKEWIAHSEKLPRKVLQHVSE [SPACA9], for which the protein stability index is, setting by setting: under setting [1], 3 ± 0.36; under setting [2], 3.67 ± 0.47.

Turning to RFGQTIQSFTLRGDHRSPASAQKF [NET1], the protein stability index came out at 3.14 ± 0.27 under setting [1] and 3.27 ± 0.32 under setting [2].

As for PDNWFCYPCIPNHELVWAKMKGFG [ZMYND11], the protein stability index was 2.43 ± 0.37 under setting [1] and 2.12 ± 0.18 under setting [2].

As to CVPPSEFSEPSFITESYQTLHPIS [ETS1], the protein stability index is, setting by setting: under setting [1], 2.98 ± 0.19; under setting [2], 3.08 ± 0.16.

With YAKLAAVAVFFIMLIVYVRFWWL [SEC22B], the protein stability index came out at 2.52 ± 0.081 under setting [3] and 2.63 ± 0.075 under setting [4].

For MAAVLNAERLEVSVDGLTLSPDPE [ACBD3], the protein stability index is, setting by setting: under setting [1], 4.41 ± 0.17; under setting [2], 4.59 ± 0.17.

On to IHKGEKPYQCSQCSKSYSRRSFLI [ZSCAN9], for which the protein stability index reads like this: under setting [1], 2.46 ± 0.75; under setting [2], 2.12 ± 0.42.

Consider AVLEYLYTGMFTSSPDLDDMKLII [RHOBTB2], for which the protein stability index came to 2.68 ± 0.6 under setting [1] and 2.53 ± 0.3 under setting [2].

Turning to LGYQAVPSGSSGSLSTSSSSSPPG [CEBPB], the protein stability index amounted to 4.78 ± 0.12 under setting [1] and 4.85 ± 0.14 under setting [2].

With KADTKGFCNISLFEDLPLQEPQSP [PLAGL1], the protein stability index is, setting by setting: under setting [1], 4.46 ± 0.14; under setting [2], 4.61 ± 0.12.

Take AHKMKFSDLFSLAEEYEDSSTKPP [INTS3]: the protein stability index under setting [1] was determined as 4.22 ± 0.17 and the protein stability index under setting [2] was 4.17 ± 0.1.

As to ACLVSCFQQLMVETCSCGYYLHPL [SCNN1D], the protein stability index is, setting by setting: under setting [1], 2.91 ± 0.17; under setting [2], 3.21 ± 0.19.

For the sequence RQQRLNQLEKPPEKEEDHAPEFIK [FAM107A], the protein stability index is, setting by setting: under setting [1], 5.33 ± 0.15; under setting [2], 5.34 ± 0.35.

For the sequence PDTRHPCSLGSSLVADYSDSESE [YJU2B], the protein stability index is, setting by setting: under setting [3], 5.39 ± 0.1; under setting [4], 5.29 ± 0.13.

With GSGPIQLWQFLLELLTDKSCQSFI [ETS1], the protein stability index turned out to be 1.88 ± 0.67 under setting [1] and 2.94 ± 1.2 under setting [2].

As for AGIMLLALVCLLSCLLPSSEAKLY [SPACA3], the protein stability index came out at 2.94 ± 0.12 under setting [1] and 3.25 ± 0.48 under setting [2].

As for PDSELSPCIPPGFRNLVADRVLNY [SPAG8], the protein stability index is, setting by setting: under setting [1], 3.18 ± 0.23; under setting [2], 3.34 ± 0.33.

Under setting [1], SLTNDWEDHLAVKHFSVEGQLEFR [HSP90AB1] yielded a protein stability index of 3.49 ± 0.23.

For the sequence GEVVKIPSRVHGSLEPFRPQQAPQ [PWWP2B], the protein stability index is, setting by setting: under setting [1], 4.22 ± 0.21; under setting [2], 4.16 ± 0.23.

Consider VGSGGATSGKLLLEADELCDDGGD [ZBTB22], for which the protein stability index by setting is: under setting [1], 5.56 ± 0.22; under setting [2], 5.55 ± 0.22.

Consider GLLEAPGLQPVVFVLFLFAYLVTV [OR3A1], for which the protein stability index under setting [1] worked out at 2.53 ± 0.98 and the protein stability index under setting [2] came to 2.61 ± 0.8.

In the case of HHPEVPQRILRIMCRLEELGLAGR [HDAC6], the protein stability index turned out to be 2.09 ± 0.088 under setting [1] and 2.52 ± 0.7 under setting [2].

The sequence RTLSAFLCLGGLACLIVMFLPEKK [SLC22A15] gave a protein stability index under setting [1] of 3.25 ± 0.42 and a protein stability index under setting [2] of 2.64 ± 0.36.

Take LDDIYYFGGQNAHNQIAIYAHQPR [FUT8]: the protein stability index by setting is: under setting [1], 2.87 ± 0.41; under setting [2], 2.92 ± 0.39.

QQFRADPSTASLLLCPGGLDHKLN [TIAF1] returned a protein stability index under setting [1] of 3.48 ± 0.28 and a protein stability index under setting [2] of 3.58 ± 0.34.

Consider TTFRGHTGGVTALCWDPVQRVLFS [WDFY2], for which the protein stability index reads like this: under setting [1], 2.25 ± 0.23; under setting [2], 2.26 ± 0.23.

Consider YSLRNKEFKSALCKIVRRTISLL [OR10K2], for which the protein stability index runs as follows: under setting [3], 2.96 ± 0.64; under setting [4], 2.93 ± 0.21.
